T1: recombinant human 5T4 protein (5T4/His) (UniProt Q13641 32-355)
T1 chain: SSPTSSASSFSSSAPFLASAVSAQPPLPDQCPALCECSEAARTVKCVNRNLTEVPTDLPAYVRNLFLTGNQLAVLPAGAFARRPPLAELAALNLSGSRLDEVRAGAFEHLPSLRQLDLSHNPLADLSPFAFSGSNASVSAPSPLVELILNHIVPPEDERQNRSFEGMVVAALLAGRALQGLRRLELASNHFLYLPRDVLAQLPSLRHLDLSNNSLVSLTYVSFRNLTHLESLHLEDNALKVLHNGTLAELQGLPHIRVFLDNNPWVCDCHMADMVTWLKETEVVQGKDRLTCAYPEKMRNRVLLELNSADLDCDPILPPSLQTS

B1: 53D tribody (other)
chain 1: QVQLVQSGAEVKKPGASVKVSCKASGYSFTSYYMHWVKQSPGQGLEWIGRINPNNGVTLYNQKFKDRVTMTRDTSISTAYMELSRLRSDDTAVYYCARSTMITNYVMDYWGQGTLVTVSSASTKGPSVFPLAPSSKSTSGGTAALGCLVKDYFPEPVTVSWNSGALTSGVHTFPAVLQSSGLYSLSSVVTVPSSSLGTQTYICNVNHKPSNTKVDKKVEPKSCDKTHTGPGGGSPGQVQLVQSGAELKKPGASVKVSCKASGYTFTRYTMHWVRQAPGQCLEWMGYINPSRGYTNYNQKFKDKATLTADKSTSTAYMELRSLRSDDTAVYYCARYYDDHYSLDYWGQGTLVTVSSASGGGGSGGGGSGGGGSAGDIQLTQSPSILSASVGDRVTITCRASSSVSYMNWYQQKPGKAPKRWIYDTSKVASGVPYRFSGSGSGTEYTLTISSMQPEDFATYYCQQWSSNPLTFGCGTKVEIKSG
chain 2: not shown
B2: 53G tribody (other)
chain 1: B1 chain 1
chain 2: not shown
B3: 53P tribody (other)
chain 1: B1 chain 1
chain 2: not shown

Molecular target: T1, recombinant human 5T4 protein (5T4/His)
Assay: ELISA

Row | Binder | EC50 [nM]
1 | B1 | 0.79
2 | B2 | 0.78
3 | B3 | 0.84

Reference: patent US20260242504A1 (published 2026)
